Results taken from the supplement of paper PMC12764529.
± gives the half width of the 95% confidence interval.

How the values were obtained:
[1] = folding stability dG unfold from trypsin proteolysis; higher = more stable
How it was run: (§1)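 Digests were run with trypsin and chymotrypsin at 11 concentrations in threefold dilutions, plus a no-protease condition, on designed mini-proteins in a PA-tagged cDNA display construct. The mini-proteins were under 80 residues, had no cysteine, and were kept only when AlphaFold2 dimer inter-PAE was above 15. After sequencing, Bayesian fitting of the counts gave K50, from which unfolding free energy was derived against a sequence-predicted unfolded-state K50 and a shared folded-state K50, per protease or combined.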

[2] = folding stability dG unfold (combined trypsin and chymotrypsin); higher = more stable
How it was run: as §1

[3] = folding stability dG unfold from chymotrypsin proteolysis; higher = more stable
How it was run: as §1

## SANPIPLEKANITVSYTSPDGLVVTANITSVTYDPSTGKYTFTFTGTLTDPSTGTTTPVSFTVSTVTLSSAG [r14_825_JUSTAS]
[1]
  folding stability dG unfold: 2.68 ± 0.1 kcal/mol
[2]
  folding stability dG unfold: 3.79 ± 0.13 kcal/mol
[3]
  folding stability dG unfold: 4.25 ± 0.099 kcal/mol

## SAPIRPGQDLKIEPEIRRYPNGSMSYTYRLEFPNGPTVHVRHTMQRDPEHGKPRHKWDIHLSPKALEAFSAG [r14_842_TrROS]
[1]
  folding stability dG unfold: 1.49 ± 0.057 kcal/mol
[2]
  folding stability dG unfold: 1.41 ± 0.07 kcal/mol
[3]
  folding stability dG unfold: 1.37 ± 0.09 kcal/mol

## SAPIVIPAKAGSPENVLKAIKEAKELASKGKKVYLPILTKDGPIFFEVDPKTKTIKIYNPKTGEKKDLSSAG [r14_423_TrMRF]
[1]
  folding stability dG unfold: 1.45 ± 0.032 kcal/mol
[2]
  folding stability dG unfold: 1.25 ± 0.16 kcal/mol
[3]
  folding stability dG unfold: 1.04 ± 0.07 kcal/mol

## SAPKIEILEVDPNRVLIKIDATPEEIEKIVEEIKKKFPGVKVETEKLEGEKKYLIKVIPVPEVPEELKKSAG [r14_600_TrMRF]
[1]
  folding stability dG unfold: 0.0352 ± 0.067 kcal/mol
[2]
  folding stability dG unfold: 1.1 ± 0.14 kcal/mol
[3]
  folding stability dG unfold: 1.44 ± 0.016 kcal/mol

## SAPKILKVETFPDGSIKVEIPLPETGAIVTITVDPDGNVVVEFYPPKSGKPVRKTIPGKTIEEVLKELGSAG [r14_760_TrMRF]
[1]
  folding stability dG unfold: 1.41 ± 0.086 kcal/mol
[2]
  folding stability dG unfold: 1.63 ± 0.12 kcal/mol
[3]
  folding stability dG unfold: 1.83 ± 0.052 kcal/mol

## SAPLEQLLEFAEEFAQAYGYRVEIEVYRNGEPKGTYEIPMPKPGQPPVSIMIRIPDPNLYIHVTIYMPRSAG [r14_728_TrROS]
[1]
  folding stability dG unfold: 2.16 ± 0.071 kcal/mol
[2]
  folding stability dG unfold: 2.75 ± 0.11 kcal/mol
[3]
  folding stability dG unfold: 3.07 ± 0.041 kcal/mol

## SAPLSEEEARQLLEEVAEELERETGASYRVELFRDPATGRWFGRIELPDGRVYTVTYDPATGEVTVTVEASA [r9_9_JUSTAS]
[1]
  folding stability dG unfold: 4.25 ± 0.1 kcal/mol
[2]
  folding stability dG unfold: 5.62 ± 0.11 kcal/mol
[3]
  folding stability dG unfold: 5.62 ± 0.069 kcal/mol

## SAPPDDWKPVTIPILIPFDSVEDAKEWVIELANELAKKHGWRINIDVDIEPVPNRYYIKIPITIYVPKKSAG [r14_626_TrROS]
[1]
  folding stability dG unfold: 2.39 ± 0.19 kcal/mol
[2]
  folding stability dG unfold: 2.47 ± 0.31 kcal/mol
[3]
  folding stability dG unfold: 2.42 ± 0.18 kcal/mol

## SAPPKTRTREIEIRFDDYYVRIKITWTKDGNLKLDIEFQGPNPVMREQIKDFLEELNPDFEITDIEVYRSAG [r14_611_TrROS]
[1]
  folding stability dG unfold: 2.13 ± 0.14 kcal/mol
[2]
  folding stability dG unfold: 2.38 ± 0.3 kcal/mol
[3]
  folding stability dG unfold: 2.67 ± 0.057 kcal/mol

## SAPPYYIVIKFKMELPPPTPEDAKEYDPDGEVRRTTVEMTFVIPIPPEDLEDLKDFMQSLGIEEIEIFKSAG [r14_509_TrROS]
[1]
  folding stability dG unfold: 2.05 ± 0.087 kcal/mol
[2]
  folding stability dG unfold: 2.56 ± 0.15 kcal/mol
[3]
  folding stability dG unfold: 2.75 ± 0.032 kcal/mol

## SAPQIVEVKEYDPVSKTYTILAETPEGPLTVPVPAGGDTTVEEAIEQVKEYFEKTLPPGVELEIEKILLSAG [r14_422_JUSTAS]
[1]
  folding stability dG unfold: 0.355 ± 0.08 kcal/mol
[2]
  folding stability dG unfold: 0.418 ± 0.093 kcal/mol
[3]
  folding stability dG unfold: 0.271 ± 0.14 kcal/mol

## SAPWRITDIDVKRHPNGRVRVTIRFPHPNMSVEIWLDKDGELDVEVSPDMRNHPPWFQNMIRDVAKELLSAG [r14_555_TrROS]
[1]
  folding stability dG unfold: 2.77 ± 0.1 kcal/mol
[2]
  folding stability dG unfold: 2.15 ± 0.1 kcal/mol
[3]
  folding stability dG unfold: 1.33 ± 0.11 kcal/mol

## SARIRIMVPPDFIMVRTPKGKMRMVDDPEEIEEIIKDILPVPIEIEPLPPNSPKFQKMMEMMMREQNGPSAG [r14_235_TrROS]
[1]
  folding stability dG unfold: -0.264 ± 0.48 kcal/mol
[2]
  folding stability dG unfold: 0.0355 ± 0.18 kcal/mol
[3]
  folding stability dG unfold: 0.158 ± 0.23 kcal/mol

## SASFTLTPVTVTLSPDPETGAILAPVLATAGDHPVFGLAYVDPLDPSRAYYRIYYPPSDLVEYAVVPLPSAG [r14_178_TrMRF]
[1]
  folding stability dG unfold: 0.469 ± 0.066 kcal/mol
[2]
  folding stability dG unfold: 0.722 ± 0.097 kcal/mol
[3]
  folding stability dG unfold: 0.847 ± 0.15 kcal/mol

## SASLEELLAELPFDAEVETKDEEVVVKITNPENPDPNVSYTFNIPSSSGVPITVNVTEVEGGTKSVKALSAG [r14_401_JUSTAS]
[1]
  folding stability dG unfold: -0.448 ± 0.15 kcal/mol
[2]
  folding stability dG unfold: -0.172 ± 0.21 kcal/mol
[3]
  folding stability dG unfold: -0.108 ± 0.24 kcal/mol

## SASMEAALAKVEEITAEPSWELVGVSPEGVFTIRNPETGTEIVIEIKVTSDGKGYKVTIPSKTVVPAPESAG [r14_20_JUSTAS]
[1]
  folding stability dG unfold: 1.45 ± 0.096 kcal/mol
[2]
  folding stability dG unfold: 1.38 ± 0.12 kcal/mol
[3]
  folding stability dG unfold: 1.3 ± 0.13 kcal/mol

## SASNKPRTIEVPIMIPPDDLKEHSPEEFIDWIANELGLPPGKDIKIDVDIEPFEHDGRPYYIIPARIQVSAG [r14_334_TrROS]
[1]
  folding stability dG unfold: -0.362 ± 0.2 kcal/mol
[2]
  folding stability dG unfold: -0.231 ± 0.22 kcal/mol
[3]
  folding stability dG unfold: -0.294 ± 0.32 kcal/mol

## SASPALELAKEIAEKIEPLFPDISPVEVTVTPRGSTALGTIKFKRPDGKELVAKMIVSAGGDPVEIILLSAG [r14_719_JUSTAS]
[1]
  folding stability dG unfold: 1.56 ± 0.14 kcal/mol
[2]
  folding stability dG unfold: 1.51 ± 0.21 kcal/mol
[3]
  folding stability dG unfold: 1.26 ± 0.25 kcal/mol

## SASPEDTVTTTETEPTTISLGTASIPPDLEVLSVTVTTTTTTTYKVEPPGVPVKLSSTTTTTTTVTLKRTSA [r9_747_JUSTAS]
[1]
  folding stability dG unfold: 2.79 ± 0.3 kcal/mol
[2]
  folding stability dG unfold: 2.69 ± 0.38 kcal/mol
[3]
  folding stability dG unfold: 2.45 ± 0.1 kcal/mol

## SASPELRKLAEEAAERLVKELGVEKLEFTFTAPVLRPVYTYDPGGNKTPRLEEEIVTYSVTAVVPPEAASAG [r14_232_TrMRF]
[1]
  folding stability dG unfold: -0.0655 ± 0.14 kcal/mol
[2]
  folding stability dG unfold: -0.0957 ± 0.2 kcal/mol
[3]
  folding stability dG unfold: -0.21 ± 0.31 kcal/mol

## SASPPRRFMIKVTYPDGKTTLSYGDDPEQTRAALEAQIAEEHPGNYTIEYTELSPDEWASPEKAEALLSSAG [r14_900_JUSTAS]
[1]
  folding stability dG unfold: 2.27 ± 0.034 kcal/mol
[2]
  folding stability dG unfold: 2.01 ± 0.078 kcal/mol
[3]
  folding stability dG unfold: 1.71 ± 0.073 kcal/mol

## SASPSETTTYTVELTSTDPSLTPEDLAERAREEFEAALPPGTRVEVEVVSVTPIPETGTTRYTIRITVRRSA [r9_706_JUSTAS]
[1]
  folding stability dG unfold: 5.18 ± 0.1 kcal/mol
[2]
  folding stability dG unfold: 4.55 ± 0.027 kcal/mol
[3]
  folding stability dG unfold: 4.26 ± 0.046 kcal/mol

## SASVEEVIEEAKELAKKLGAYVIVTVYKNNKKIGTYEYPSPSKNSPPTSITIESPDPNYKVKITIYPPGSAG [r14_728_JUSTAS]
[1]
  folding stability dG unfold: 2.53 ± 0.062 kcal/mol
[2]
  folding stability dG unfold: 2.94 ± 0.092 kcal/mol
[3]
  folding stability dG unfold: 3.12 ± 0.032 kcal/mol

## SATETLTVVETRTVRDPAVPGTTTTETRVTEVTRPAPPPPPLSAEELARALAEAGLLERTDDGELKVVLSAG [r14_582_TrROS_Hall]
[1]
  folding stability dG unfold: -0.559 ± 0.25 kcal/mol
[2]
  folding stability dG unfold: -0.567 ± 0.43 kcal/mol
[3]
  folding stability dG unfold: -0.276 ± 0.11 kcal/mol

## SATFKPGETVTIDELTIDGATITKVTVTVNADGTITITATIKPAPPPPPPPEVVRNPETGKTYPAGEVKDSA [r9_603_TrROS_Hall]
[1]
  folding stability dG unfold: 1.87 ± 0.19 kcal/mol
[2]
  folding stability dG unfold: 1.34 ± 0.23 kcal/mol
[3]
  folding stability dG unfold: 0.615 ± 0.087 kcal/mol

## SATFRLPNGKTISIMAPLPPGEMTPDQVISMARMIVRNIFPPGKKVEVKIEVEQYPNGMVHVKIPIKAESAG [r14_389_TrROS]
[1]
  folding stability dG unfold: 0.0799 ± 0.31 kcal/mol
[2]
  folding stability dG unfold: 0.406 ± 0.4 kcal/mol
[3]
  folding stability dG unfold: 0.312 ± 0.28 kcal/mol

## SATIEIPIKVNDRKFRISIERMPDGWIKIQIRDPNMPKDAVKDALREILGPGWKIDTDPETNTIYIPFKSAG [r14_370_TrROS]
[1]
  folding stability dG unfold: 2.41 ± 0.061 kcal/mol
[2]
  folding stability dG unfold: 2.67 ± 0.059 kcal/mol
[3]
  folding stability dG unfold: 2.77 ± 0.027 kcal/mol

## SATKEIEIEVNGRKLRIRIERKEDGSIKITIELPGMSAEEVKEALRKLLPPDAKITVDEITVTEYREEPSAG [r14_370_TrROS_Hall]
[1]
  folding stability dG unfold: 3.14 ± 0.17 kcal/mol
[2]
  folding stability dG unfold: 2.84 ± 0.3 kcal/mol
[3]
  folding stability dG unfold: 2.43 ± 0.17 kcal/mol

## SATREIELPGKKITIHHNPGNNMFRITIYDPKPGKPVEIPIPANNPGMTMENIIDQIREAAKKGRPVRISAG [r14_157_TrROS]
[1]
  folding stability dG unfold: 0.85 ± 0.036 kcal/mol
[2]
  folding stability dG unfold: 0.885 ± 0.082 kcal/mol
[3]
  folding stability dG unfold: 0.671 ± 0.079 kcal/mol

## SATTTLNLSSVEELKELVEKLIAEGNPEATLTVTLYPPSGESSTKSFSSVEEVIEELKKGPASVTITVTSSA [r9_589_JUSTAS]
[1]
  folding stability dG unfold: 2.18 ± 0.045 kcal/mol
[2]
  folding stability dG unfold: 2.56 ± 0.049 kcal/mol
[3]
  folding stability dG unfold: 2.7 ± 0.022 kcal/mol

## SATVTLVSVEKEGDKTTVTTRDPSGYTVTVTNPDGSIVLAPIPAEGAEAAIAAIKAAHPGVTVTLEAAASAG [r14_528_JUSTAS]
[1]
  folding stability dG unfold: 0.617 ± 0.036 kcal/mol
[2]
  folding stability dG unfold: 1.15 ± 0.11 kcal/mol
[3]
  folding stability dG unfold: 1.24 ± 0.031 kcal/mol

## SAVEIEFWFPGGMSVEEFVNEFSKILPGLRDVDIGVEPYPETDMWKVTATIRIVPPPSPEDQEEMQKNKSAG [r14_645_TrROS]
[1]
  folding stability dG unfold: 1.38 ± 0.07 kcal/mol
[2]
  folding stability dG unfold: 1.62 ± 0.1 kcal/mol
[3]
  folding stability dG unfold: 1.7 ± 0.051 kcal/mol

## SAVELPPDASITAVTVDPSGSRTVEVEVKTTTAYVYDPATGTTTTVPPGVRTVVTLPADVPVTVSFTSPSAG [r14_385_JUSTAS]
[1]
  folding stability dG unfold: 0.252 ± 0.099 kcal/mol
[2]
  folding stability dG unfold: 0.413 ± 0.085 kcal/mol
[3]
  folding stability dG unfold: 0.484 ± 0.084 kcal/mol

## SAVINIEAWFPPGKSVEEAVDEAKNIIHQFGFEIDDVDVERDPNGWVRVDFTIKIKPPMPPEQRKKLQDSAG [r14_110_TrROS]
[1]
  folding stability dG unfold: 1.25 ± 0.051 kcal/mol
[2]
  folding stability dG unfold: 2.45 ± 0.26 kcal/mol
[3]
  folding stability dG unfold: 2.91 ± 0.091 kcal/mol

## SAVIPLEELARKVAEELGLEPVEVLEVIPEEGVVVMRFEGAVIVVKVDPETGEAEVEIVVFDPETGKPVSAG [r14_270_TrMRF]
[1]
  folding stability dG unfold: 2.82 ± 0.11 kcal/mol
[2]
  folding stability dG unfold: 3.16 ± 0.085 kcal/mol
[3]
  folding stability dG unfold: 3.35 ± 0.063 kcal/mol

## SAVITYPIPDDKPTLILEPLPGSESLLILSTKREKIPNGTYKVEALVVRYEPALGASVEEKVELIEPIGSAG [r14_591_JUSTAS]
[1]
  folding stability dG unfold: -0.819 ± 0.46 kcal/mol
[2]
  folding stability dG unfold: -0.239 ± 0.22 kcal/mol
[3]
  folding stability dG unfold: -0.216 ± 0.56 kcal/mol
